Experimental data reported in patent US8008456B2, “Compositions containing, methods involving, and uses of non-natural amino acids and polypeptides” (Ambrx, Inc., priority 2004, dated 2011).

Assay: Pharmacokinetic studies, single s.c. dose in rats, plasma growth hormone ELISA
Type: in vivo
Details: single-dose 1 mg/kg bolus s.c., normal male Sprague-Dawley rats; average (+/- standard deviation)
Description: Pharmacokinetic properties of PEG-modified growth hormone compounds were compared to each other and to nonPEGylated growth hormone in male Sprague-Dawley rats (261-425 g) obtained from Charles River Laboratories. Catheters were surgically installed into the carotid artery for blood collection. Following successful catheter installation, animals were assigned to treatment groups (three to six per group) prior to dosing. Animals were dosed subcutaneously with 1 mg/kg of compound in a dose volume of 0.41-0.55 ml/kg. Blood samples were collected at various time points via the indwelling catheter and into EDTA-coated microfuge tubes. Plasma was collected after centrifugation, and stored at −80° C. until analysis. Compound concentrations were measured using antibody sandwich growth hormone ELISA kits from either BioSource International (Camarillo, Calif.) or Diagnostic Systems Laboratories (Webster, Tex.). Concentrations were calculated using standards corresponding to the analog that was dosed. Pharmacokinetic parameters were estimated using the modeling program WinNonlin (Pharsight, version 4.1). Noncompartmental analysis with linear-up/log-down trapezoidal integration was used, and concentration data was uniformly weighted.
Plasma concentrations were obtained at regular intervals following a single subcutaneous dose in rats. […] Plasma samples were taken over the regular time intervals and assayed for injected compound as described. […] Concentration vs time curves were evaluated by noncompartmental analysis (Pharsight, version 4.1). Values shown are averages (+/−standard deviation). Cmax: maximum concentration; terminal t1/2: terminal half-life; AUC0->inf: area under the concentration-time curve extrapolated to infinity; MRT: mean residence time; Cl/f: apparent total, plasma clearance; Vz/f: apparent volume of distribution during terminal phase.

Row | Substance | AUC0->inf | Cl/f | Cmax | MRT | Terminal t1/2
1 | 30KPEG-pAF145(his)hGH: "His-tagged hGH polypeptide comprising non-natural amino acid p-acetyl-phenylalanine covalently linked to 30 kDa PEG at each of six different positions" | 13,162 (±6,726) ng × hr/ml | 88 (±29) ml/hr/kg | 634 (±256) ng/ml | 17.82 (±0.56) h | 5.87 (±0.09) h
2 | 30KPEG-pAF143(his)hGH: "His-tagged hGH polypeptide comprising non-natural amino acid p-acetyl-phenylalanine covalently linked to 30 kDa PEG at each of six different positions" | 17,494 (±3,654) ng × hr/ml | 59 (±11) ml/hr/kg | 803 (±149) ng/ml | 18.83 (±1.59) h | 6.02 (±1.43) h
3 | 30KPEG-pAF134(his)hGH: "His-tagged hGH polypeptide comprising non-natural amino acid p-acetyl-phenylalanine covalently linked to 30 kDa PEG at each of six different positions" | 7,304 (±2,494) ng × hr/ml | 151 (±63) ml/hr/kg | 566 (±204) ng/ml | 12.15 (±1.03) h | 4.36 (±0.33) h
4 | 30KPEG-pAF131(his)hGH: "His-tagged hGH polypeptide comprising non-natural amino acid p-acetyl-phenylalanine covalently linked to 30 kDa PEG at each of six different positions" | 6,978 (±2,573) ng × hr/ml | 161 (±61) ml/hr/kg | 497 (±187) ng/ml | 14.28 (±0.92) h | 4.41 (±0.27) h
